The values below come from US11214614B2, “LTBP complex-specific inhibitors of TGFβ and uses thereof” (Scholar Rock, Inc., priority 2019, dated 2022).

Residue numbers refer to the chain shown, from its start.

The target in one assay is huLTBP1 proTGFβ1 (Homo sapiens, UniProt P01137+Q14766). The experiment in a line: SPR (Biacore 8K) monovalent binding kinetics of Fabs, biotinylated antigen captured. Details: biotin (complex biotinylated). Conditions: for KD of Fab fragments / Binding of human Fabs for huLTBP1 proTGFβ1 and huLTBP3 proTGFβ1 (FIGS. 23, 24): SPR; for KD of Fab fragments: antigen not given; for Monovalent affinities (FIGS. 23, 24): figure legends. Here is the method:
A Biacore 8K system was employed to determine the monovalent binding affinity and the kinetic parameters for antigen binding of test antibodies. Association and dissociation kinetics of Fab fragments SR-AB42-HuFab, SR-AB63-HuFab and SR-AB43-HuFab to antigen complexes were measured, and resulting ka, kd and KD are provided below. Briefly, the binding kinetics were evaluated by surface plasmon resonance using Biacore 8K (GE Healthcare). Biotinylated capture antigens were immobilized to the chip (10 nM, ˜200 RU loading). A Biotin CAPture sensor chip was used to capture the biotinylated antigens. Fabs at 10, 5, 2.5, 1.25, and 0.6 nM concentrations were injected over the captured antigens. 0 nM was used as a reference. Affinities of LTBP antibodies to GARP and LRRC33 were confirmed using higher concentration of Fabs (100, 50, 25, 12.5, 6.25 nM). 0 nM was used as a reference. Multi-cycle kinetics was employed where each analyte concentration was injected in a separate cycle and the sensor chip surface was regenerated after each cycle. All the assays were carried out in freshly prepared 1×HBS-EP+buffer (10 mM HEPES, 150 mM NaCl, 3 mM EDTA, 0.05% Tween20, pH 7.4). Data were fit globally to a 1:1 binding model to obtain the kinetic parameters. The sensorgram for 0 nM analyte concentration was used as reference.
• 96 well plates—Greinerbio-one REF 650101 • Microplate Foils—GE Healthcare—CAT #28-9758-16 • Biotin CAPture Kit GE Healthcare product number 28920233 • Biacore running buffer—supplied as a 20× solution, diluted in Milli-Q water, TEKnova CAT #H8022 Method:
These experiments were performed using the Biacore 8K using the method “multi-cycle kinetics/affinity using Biotin CAPture kit.”
Data collection rate was set to 10 Hz and the Biotin CAPture step was performed for 300 seconds with a flow rate of 2 μL/minute. The Biotin CAPture reagent was used after a 1:5 dilution in 1× Biacore running buffer. Biotinylated ligands (the various complexes of TGFβ1) were utilized at a concentration of 10 nM and were immobilized to the sensor chip for 180 seconds with a flow rate of 10 μL/minute. The analytes, which are each of the Fabs, were tested at 10, 5, 2.5, 1.25, and 0.625 nM with a 0 nM control included. Analyte contact time was 120 seconds and the dissociation time was 900 seconds. The regeneration cycle utilized was 120 seconds with a flow rate of 10 μL/minute.
The evaluation method used was “multi-cycle affinity using capture” and a 1:1 binding model was used. […] Global fits were utilized for every KD determination.

Assay [1] relates to phosphorylation of Smad2/3 in kidney of Col4a3−/− mice. In words: Alport (Col4a3−/−) mouse model, pSMAD2/3 ELISA on whole kidney lysates. The format is in vivo. Conditions: single dose 30 mg/kg i.p., 48 hours prior to sacrifice, 11 week old Col4a3−/− mice. The source says: The murine Col4a3 −/− model is an established genetic model of autosomal recessive Alport syndrome. Alport mice lack a functional collagen 4A3 gene (Col4A3−/−) and therefore cannot form normal type IV collagen trimers, which require a3, a4, and a5 chains. Col4a3−/− mice develop fibrosis in the kidney consistent with renal fibrosis in human patients, including interstitial fibrosis and tubular atrophy, and Col4a3−/− mice develop end-stage renal disease (ESRD) between 8 and 30 weeks of age, depending on the genetic background of the mouse. The structural and functional manifestation of renal pathology in Col4a3−/− mice, combined with the progression to ESRD make Col4a3−/− mice an ideal model to understand kidney fibrosis. […]
It is well documented that TGFβ receptor activation leads to a downstream signaling cascade of intracellular events, including phosphorylation of Smad2/3. Therefore, the ability of SR-AB42 and SR-AB63 treatment to inhibit TGFβ signaling was assessed in kidney lysate samples by measuring relative phosphorylation levels of Smad2/3 as assayed by ELISA (Cell Signaling Technologies) according to the manufacturer's instructions. […] FIG. 20B is a graph showing the amount of phosphorylated SMAD2/3 (pSMAD2/3) as determined by ELISA and FIG. 20C is a graph showing the amount of total […] (tSMAD2/3) protein as determined by ELISA.

The subject of assay [2] is proTGFβ1 presented by endogenous LTBP1/3 in LN229 cells. The experiment in a line: Endogenous LTBP caga assay: LN229 cells transfected with human proTGFβ1 only, CAGA12 luciferase reporter cells. The format is cell-based. Conditions: endogenous presenting molecules.

Chain of huLTBP1 proTGFβ1 (P01137 30-390): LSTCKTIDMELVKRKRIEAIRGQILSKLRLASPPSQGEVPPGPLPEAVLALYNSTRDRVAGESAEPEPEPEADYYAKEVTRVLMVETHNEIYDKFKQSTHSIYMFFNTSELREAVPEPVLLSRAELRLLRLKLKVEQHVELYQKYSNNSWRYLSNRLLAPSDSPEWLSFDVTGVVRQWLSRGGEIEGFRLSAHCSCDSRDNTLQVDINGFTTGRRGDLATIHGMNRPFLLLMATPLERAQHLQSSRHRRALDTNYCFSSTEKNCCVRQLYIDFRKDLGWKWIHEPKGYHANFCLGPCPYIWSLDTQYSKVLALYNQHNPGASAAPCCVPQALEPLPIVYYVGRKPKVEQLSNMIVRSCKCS
Chain of huLTBP1 proTGFβ1 (Q14766 347-1721 limits assumed): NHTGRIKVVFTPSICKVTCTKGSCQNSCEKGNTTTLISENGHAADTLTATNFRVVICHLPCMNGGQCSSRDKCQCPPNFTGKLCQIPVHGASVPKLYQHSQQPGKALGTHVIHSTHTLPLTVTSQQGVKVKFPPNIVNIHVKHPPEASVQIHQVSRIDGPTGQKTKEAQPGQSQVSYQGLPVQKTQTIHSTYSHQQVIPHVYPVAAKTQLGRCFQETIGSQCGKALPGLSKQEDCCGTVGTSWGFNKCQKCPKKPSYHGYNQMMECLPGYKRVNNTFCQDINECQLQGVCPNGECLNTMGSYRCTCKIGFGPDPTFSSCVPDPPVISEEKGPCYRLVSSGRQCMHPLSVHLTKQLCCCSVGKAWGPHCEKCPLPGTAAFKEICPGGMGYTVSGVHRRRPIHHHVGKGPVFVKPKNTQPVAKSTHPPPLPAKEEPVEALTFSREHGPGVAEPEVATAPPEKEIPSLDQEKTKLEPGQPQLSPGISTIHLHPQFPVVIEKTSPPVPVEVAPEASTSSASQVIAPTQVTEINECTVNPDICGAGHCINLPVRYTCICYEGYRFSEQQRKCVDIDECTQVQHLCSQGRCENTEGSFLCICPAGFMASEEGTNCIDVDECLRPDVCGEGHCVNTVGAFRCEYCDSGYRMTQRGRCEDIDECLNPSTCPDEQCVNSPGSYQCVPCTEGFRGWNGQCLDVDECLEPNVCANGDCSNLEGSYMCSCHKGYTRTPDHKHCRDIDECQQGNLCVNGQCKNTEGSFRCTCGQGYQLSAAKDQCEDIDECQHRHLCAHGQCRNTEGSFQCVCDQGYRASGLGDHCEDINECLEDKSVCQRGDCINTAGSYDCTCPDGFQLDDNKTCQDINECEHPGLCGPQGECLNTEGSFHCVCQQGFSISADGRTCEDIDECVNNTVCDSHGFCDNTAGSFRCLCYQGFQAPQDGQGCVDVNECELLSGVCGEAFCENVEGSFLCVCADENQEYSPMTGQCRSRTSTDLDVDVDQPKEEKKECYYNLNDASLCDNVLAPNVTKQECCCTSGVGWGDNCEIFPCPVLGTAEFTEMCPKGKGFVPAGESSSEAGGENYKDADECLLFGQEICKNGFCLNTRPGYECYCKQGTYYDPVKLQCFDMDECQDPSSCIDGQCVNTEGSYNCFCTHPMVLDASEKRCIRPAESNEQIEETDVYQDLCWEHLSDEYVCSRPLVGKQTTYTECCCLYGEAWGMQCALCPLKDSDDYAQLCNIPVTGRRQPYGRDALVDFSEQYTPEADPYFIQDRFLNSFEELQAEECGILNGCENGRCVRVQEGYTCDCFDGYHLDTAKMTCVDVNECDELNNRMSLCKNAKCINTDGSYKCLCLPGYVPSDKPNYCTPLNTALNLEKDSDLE
Chain of proTGFβ1 presented by endogenous LTBP1/3 in LN229 cells (P01137 30-390): as the sequence (P01137 30-390) above

B1: SR-AB63: cycle 3 antibody, lineage SR-AB26; CDRs SEQ ID NO: 292-297; HCVR SEQ ID NO: 360, LCVR SEQ ID NO: 361 (antibody, V domains shown)
VH: QLQLQESGPGLVKPSETLSLTCTVSGGSIRSSSYYWGWIRQPPGKGLEWIGSISYSATTYYNPSLKSRVTISVDTSKNQFSLKLSSVTAADTAVYYCAGDPSYDSIAGMQVWGQGTTVTVSS
VL: DIQLTQSPSSLSASVGDRVTITCRASQSISSYLNWYQQKPGKAPKLLIYAASNLQSGVPSRFSGSGSGTDFTLTISSLQPEDFATYYCQQSFDWPLTFGGGTKVEIK
As to B1, in the assay with huLTBP1 proTGFβ1, the “KD of Fab fragments” value is “sub-nanomolar”; the “Binding of human Fabs for huLTBP1 proTGFβ1 and huLTBP3 proTGFβ1 (FIGS. 23, 24)” value is “context-selective binding”; the “Monovalent affinities (FIGS. 23, 24)” value is “picomolar monovalent affinities”. In assay [1], the “pSmad2/3 signaling (pSMAD2/3:tSMAD2/3) in whole kidney lysates” value is given as “significantly inhibit pSmad2/3 signaling”.

B2: SR-AB42: cycle 3 antibody, lineage SR-AB23; CDRs SEQ ID NO: 166-171; HCVR SEQ ID NO: 318, LCVR SEQ ID NO: 319 (antibody, V domains shown)
VH: QVQLVESGGGVVQPGRSLRLSCAASGFTFRSYVMHWVRQAPGKGLEWVAVISHEGSLKYYADSVKGRFTISRDNSKNTLYLQMNSLRAEDTAVYYCARPRIAARRGGFGYWGQGTLVTVSS
VL: NFMLTQPHSVSESPGKTVTISCTRSSGNIDNNYVQWYQQRPGSSPTTVIYEDNQRPSGVPDRFSGSIDSSSNSASLTISGLKTEDEADYYCQSYDYDTQGVVFGGGTKLTVL
As to B2, in the assay with huLTBP1 proTGFβ1, the “KD of Fab fragments” value is on record as “sub-nanomolar”; the “Binding of human Fabs for huLTBP1 proTGFβ1 and huLTBP3 proTGFβ1 (FIGS. 23, 24)” value was “context-selective binding”; the “Monovalent affinities (FIGS. 23, 24)” value was “picomolar monovalent affinities”. The “pSmad2/3 signaling (pSMAD2/3:tSMAD2/3) in whole kidney lysates” value in assay [1] was “significantly inhibit pSmad2/3 signaling”.

B3: SR-AB22: second-round (CDR-H3 mutagenesis) antibody, lineage SR-AB14; CDRs SEQ ID NO: 108-113 (antibody, V domains shown)
VH: B2 VH with R98V
VL: B2 VL with Y96S, T98N
In the case of B3, the “Inhibition of TGFβ1 activation (TGFβ activity, luciferase)” value in assay [2] is recorded as “improved potency”.

B4: SR-AB23: second-round (CDR-H3 mutagenesis) antibody, lineage SR-AB14; CDRs SEQ ID NO: 116-121 (antibody, V domains shown)
VH: B2 VH
VL: B2 VL with Y96S, T98N
For the molecule B4, in assay [2], the “Inhibition of TGFβ1 activation (TGFβ activity, luciferase)” value is “improved potency”.
